Data published in the nanobody polyreactivity screen of Harvey et al. (2022).

Assay: yeast display, Sf9 membrane polyspecificity reagent, FACS + sequencing; frameworks hold sequencing errors
Summary of the method: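 Synthetic nanobody libraries on Saccharomyces cerevisiae BJ5465 were galactose-induced for 36–48 hours, stained 1 hour at 4 °C with 10% biotinylated, detergent-solubilized Sf9 membrane reagent and enriched on streptavidin microbeads. FACS then separated cells into low and high (top ~1%) gates by anti-HA (expression) and streptavidin (reagent binding) fluorescence. Genes were colony-PCR amplified, MiSeq 2 × 250 sequenced and CDR-length filtered. A clone's polyreactivity label is that of its gate of origin.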

Sequence	polyreactivity (PSR sort gate)
QVQLVESGGGVVQAGGSLRLSCAASGFIFGYYATGWYRQAPGKERELVDAFTRSGGSTRYADSVKGRFTISRDNAKNTVYLHMNSLKPEDSAVYYCNAYAPRQLYGYDYWGQGTQVTVSS	high polyreactivity
QVQLVESGGGLFQAGGSLRLSCAASGRTFYKYAMGWYRQAPGKERELVATITSGGSTNYADSVKGRFTISRDNAKNTVYLQLNCLKPEETAVYYFAARGHIYKIRDPYWTHDFWGQGTQVTVSS	low polyreactivity
QVQLVESGGGLVQAGGSLRLSCAASGITFDSYAMGWYRQAPGKERELVAAISYSGGSTYYADSVKGCFTISRDNAKNTVYLQMNSLKPEDTAVYYCAAASDDDYDYWGQGTQVTVSS	low polyreactivity
QVQLVESGGGLVQAGGSLRLSCAASGGTFQRYVMGWYRQAPGKERELVAAISRSGSTYADSVKGRFTISRDNAKNTVYLQMKSLKPEDTAVYYCNVVSYYRYYLHGYDYWGQGTQVTVSS	high polyreactivity
QVQLVESGGGLVQAGGSLRFSCAASGSTFLSNAIGWYRLAPGKERELVAAISIGGGRTYYADSVKGRFTISRDNAKNTVYLQMNSLKPEYTAVYYCNAVGRHTDAYHYDYWGQGTQVTVSS	high polyreactivity
QVQLVESGGGLVQAGGSLRLSCAASGRTFCRYAMGWYIQAPGKERELVASISVSGGGTYYADSVKGRFTISRDNAKNTVFLQMNSLKPQDTAVYYCAARPVYYRYRRDYWGQGTHVTVSS	high polyreactivity
QVQLVESGGGLVQAGGSLRLSCAASGLILYYYDMGWYRQAPGKERELVAAISWNGDDTYYADSVKGRFTISRDNAKNTVYLQMNSLKPEDTAVYYCAAEGPPQTDDYWGQATQVTVSS	high polyreactivity
QVQLVESGGGLDQAGGSLRLSCAASGITVTSYVMGWYRQAHWKERELVAAIRWSGGRTYYADSVKGRFTISRDNAKNTVYLQMNSLKPEDTAVYYCNRVTRSHVDYWGQGTQVTVSS	high polyreactivity
QVQLVESGGGLVQAGGSLRLSCAASGRIYGFNTMGWYRQAPGKERELVAAITTSGVSTYYADSVKGRFTISRDNAKNTVYLQMNSLKPEDTAVYYCAARWYRTGPYKRRDYWGQGTQVTVSS	high polyreactivity
QVQLVESGGGLVQAGGSLRLSCAASGRIFAYYAMGWYRQAPGKERELVATINYSGTSTYYADSVKGRFTISRDNAKNTVYLQMNSLKPEDTAVYYCAARYGYAVYYYGTPVRRYYYWGQGTQVTVSS	high polyreactivity
QVQLVESGGGLVQAGGTLRLSCAASGSTFPKYGMGWYRQAPGKEREFVARINWNGGGTYYADSVKGRFTISRDNAKNTVYLHMNSLKPEDTAVYYCNARKRGARFILGYDYWGQGTQVTVSS	low polyreactivity
QVQIVESGGGLVQAGGSLRLCCAASGRTFYGSKMGWYRQAPGKESELVAAISRNGASTFYADSVKRRFTISRDNAKKSVYLQINILKPEYTGVYYFNARSWRHTDTSFEYWGQGTQVTVSS	high polyreactivity
QVQLVESGGGLVQAGGSLRLSCAASGFIFGKNAMGWYRQAPGKERELVAVISWRGSSTYYADSVKGRFTISRDNAKNTVYLQMNSLNPEDTAVYYCAARYPARGTLYYWGQGTQVTVSS	low polyreactivity
QVQLVESGGGLVQAGGSLRLSCAASGSIFTRNAMGWYRQAPGKERELVARISARSGRTYYADSVKGRFTISRDNAKNTVYLQMNSLKPEDTAVYYFAVRYRGKYPFRYNYWGQGTQVTVSS	high polyreactivity
QVQLVESGGGLVQAGGSLRLSCAASGRTFYVNAMGWYRQAPGKERELVARISSSGITYYADSVKGRFTISRDNAKNTVYLQMNSLKPEDTAVYYCAAEYRSYSTLNRKFWYSPEYDYWGQGTQVTVSS	low polyreactivity
QVQLVESGGGLVQAGGSLRLSCAASGSIFTPYTMGWYRQAPGKERELVAAISWGADSTYYADSVKGRFTISRDNAKNTVYLQMISLKPEDTAVYYCGDDYWGWSNGYEYWGQGTQVTVSS	low polyreactivity

Sequence	polyreactivity (PSR sort gate)
QVQLVESGGGLVQAGGSLRLSCAASGRTFYVNAMGWYRQAPGKERELVAAISRSGRTNYADSVKGRFTISRDNAKNTVYLQMNSLKPEDTAVYYCAAALSNVRNVRSPYDYWGQGTQVTVSS	high polyreactivity
QVQLVESGGGLVQAGGSLRLSCAASGSTFYYYSMGWNRQAPGKERELVAAISYRGGTTYYADSVKGRFTISRDNAKNTVYLQMNSLKPEDTAVYYCAAGVSWYRPGSYTGGYWGQGTQVTVSS	high polyreactivity
QVQLVESGGGLVQAGCSLRLSCAASGSTFFRYAMGWYRQAPGKERELVAAITSGGNTYYADSVKGRFTISRDNAKITVYLQMNSMKPEDTAVYYCAADVYHWIHEYDYWGQGTQVSVSS	low polyreactivity
QFQLVESGGGLVQAGGSLRLICAASGIIFKLNAMGWYRQAPGIETELVAAITYRGGTTYYADSVKGRFTISRDNAKNTVYVQMNSLKPEDTAVYYCAVAVTSYSSKKLYYWGQGTQVTVSS	low polyreactivity
QVQLVESGGGLVQAGGSLRLSCAASGRTFRTYTMGWYRQAPGKERELVAAITSTGSTYYADSVKGRFTISRDNAKNTVYLQMNSLKPEDTAVYYCAAVYVAVGLVYEKYDYWGQGTQVTVSS	high polyreactivity
QVQLVESGGGLVQAGGSLRLSCAASGSTSDSNAMGWSRQAPGKERELVAAITYSGDSTYYAYSVKGRFTISRDNAKNTVYLQMNSLKPEDTAVYYCATETYPSYEVDYWGQGTQVTVSS	low polyreactivity
QVQLVESGGGLVQAGGSLRLSCAASGSIYVYYAKGWYRQAPGKERYLVAAINTSGGSTYYADSVKGRFTISRDNAKNTVYLQMNSLKPEDTAVYYCAATPFASPRLHSFVVSYRYYYWGQGTQVTVSS	low polyreactivity
QVQLVESGGGLVQAGGSLRLSCAASGSTFGQYVMGWYRQAPGKERELVAAISSADSTNYADSVKGRFTISRDNAKNTVYLQMNSLKPEDTAVYYCAAARRPTYWPVYPYFGYEYWGQGTQVTVSS	low polyreactivity
QVQLQESGGGLVQAGGSLRLTCAASGSIYDDTYMGCYRQAPGKERELVATIDSGSTTNYADSVKGRITIRRDNAKNTVYLQMNSLKPEDTAVYFCGAADSHIDYFDYWGQGTQVTVSS	low polyreactivity
QVQLVESGGGLVQAGGSLRLSCAASGRIFTNNAMGWYRQAPGKERELVAAISKRGGSTYYADSVKGRFTISRDNAKNTVYLQMNSLKPEDTAVYYCNAREYIHWRGALGLFGSWGQGTQVTVSS	high polyreactivity
QVQLVESGGGLVQAGGSLRLSCAASGSTFVKYAMGWYRQAPGKERELVARISSSGGSTYYADSVKGRFTISRDNAKNTVYLQMNSLKPEDTAVYYCAAPSLIAKYDYWGQGTQVTVSS	high polyreactivity
QDQLVESGGGLVQAGGSLRLSCAASGRIFVPYSKGWYRQATGKERELVAAISLRGGTTYYSDSVKGRFTISRDNAKNTVYLQMNSLKPEDTAVYYCAARGYVSVWRPYHWFVAGDYWGQGTQVTVSS	high polyreactivity
QVQLVESGGGLVQAGGSLRLSCAASGFTFRRYVMGWYRQAPGKERELVAAISQRGGSTYYADSVKGRFTISRDNAKNTVYLQMNSLKPEDTAVYYCNIDYAGELDYWGQGTQVTVSS	high polyreactivity
QVQLVESGGGLVQAGGSLRLSCAASGRIFVYYDMGWYRQAPGKEREVVAAISSTGGSTNYADSVKGRFTISRDNAKNTVYLQMNSLKPEDTAVYYCNAALWRIAYPYGYYQYDYWGQGTQVTVSS	low polyreactivity
QVQLVESGGGLVQAGGSLRLSCAASGLTIFVNAMGWYRQAPGKERELVATISGGGSTYYADSVKGRFTISRDNAKNTVYLQMNSLKPEDTAVYYCNADVLFYTYYTRGRFDFDYWGQGTQVTVSS	low polyreactivity
